According to publication PMC2438614, “Antibodies Targeting the PfRH1 Binding Domain Inhibit Invasion of Plasmodium falciparum Merozoites” (PLoS Pathogens, 2008):

Biological target: the molecule itself
Assay: SEC; gel filtration of purified recombinant rRII-3; column and buffer not told in the text shown (Figure S3)

B1: recombinant RII-3 of P. falciparum reticulocyte binding protein homologue 1 (PfRH1), amino acids 500 to 833 (domain or fragment)
chain: LQIVQQKLLEIKQKKNDITHKVQLINHIYKNIHDEILNKKNNEITKIIINNIKDHKKDLQDLLLFIQQIKQYNILTDHKITQCNNYYKEIIKMKEDINHIHIYIQPILNNLHTLKQVQNNKIKYEEHIKQILQKIYDKKESLKKIILLKDEAQLDITLLDDLIQKQTKKQTQTQTQTQKQTLIQNNETIQLISGQEDKHESNPFNHIQTYIQQKDTQNKNIQNLLKSLYNGNINTFIDTISKYILKQKDIELTQHVYTDEKINDYLEEIKNEQNKIDKTIDDIKIQETLKQITHIVNNIKTIKKDLLKEFIQHLIKYMNERYQNMQQGYNNLTN
notes: region II amino acids 500 to 833 (334 residues); Cloned EcoRI/XhoI into pET24a(+); no cleavage of the tag is described; Primers are in Protocol S1; also called rRII-3; source: E. coli BL21-CodonPlus-RIL, purified (Ni-NTA, MonoS ion exchange); not shown: His6, C-terminal, kept
For B1, the “stoichiometry N” value was 3.
